Assay results reported in US20200383981.

System: wild-type human IDO1

human Src Y530F
tyrosine phosphorylation of human IDO1 Tyr249 (ITIM2), western blot of SW837 IDO1WT lysate: Expression of human Src Y530F in SW837 IDO1WT cells was shown to enhance tyrosine phosphorylation of human IDO1 Tyr249 (ITIM2)
